Test results from patent publication US20100239633A1.

Molecular target: Human FcγRIIIa (human) (UniProt P08637)
Assay: SPR (Biacore), FcγRIIIa immobilized; 1:1 with mass transfer fit

Substance: G-011 (from UniProt P01854 104-210)
- Ka: 1.8e+07 M⁻¹
- Kd: 5500 nM

Substance: mouse IgG2a (antibody)
- Ka: 2.1e+08 M⁻¹
- Kd: 4.7 nM
